Source: PMC9667317

Key:
Conditions in all cases: other: capillary electrophoresis
[1] = biological target: WT Cu, Zn superoxide dismutase-1 (SOD1), recombinant human (UniProt P00441); assay: capillary electrophoresis; binder (first named) as 4Zn-SOD1, target (second named, WT or TD) as apo-SOD1; 15 μM dimer each ([SOD1]total = 30 μM), followed over time; 10 mM potassium phosphate pH 7.4, CE at 22 °C, storage at 15 °C; KHet assumed from the fit extrapolated to t = 5000 min
[2] = biological target: WT Cu, Zn superoxide dismutase-1 (SOD1), recombinant human (UniProt P00441); assay: capillary electrophoresis; both homodimers as 4Zn-SOD1; 15 μM dimer each ([SOD1]total = 30 μM), followed over time; 10 mM potassium phosphate pH 7.4, CE at 22 °C, storage at 15 °C; KHet assumed from the fit extrapolated to t = 5000 min
[3] = biological target: WT Cu, Zn superoxide dismutase-1 (SOD1), recombinant human (UniProt P00441); assay: capillary electrophoresis; binder (first named) as apo-SOD1, target (second named, WT or TD) as 4Zn-SOD1; 15 μM dimer each ([SOD1]total = 30 μM), followed over time; 10 mM potassium phosphate pH 7.4, CE at 22 °C, storage at 15 °C; KHet assumed from the fit extrapolated to t = 5000 min
[4] = biological target: WT Cu, Zn superoxide dismutase-1 (SOD1), recombinant human (UniProt P00441); assay: capillary electrophoresis; both homodimers apo (metal-free, disulfide intact), mixed at 15 μM dimer each ([SOD1]total = 30 μM), followed over time; 10 mM potassium phosphate pH 7.4, CE at 22 °C, storage at 15 °C; KHet assumed from the fit extrapolated to t = 5000 min

WT Cu, Zn superoxide dismutase-1 (SOD1), recombinant human, sequence (P00441 whole entry): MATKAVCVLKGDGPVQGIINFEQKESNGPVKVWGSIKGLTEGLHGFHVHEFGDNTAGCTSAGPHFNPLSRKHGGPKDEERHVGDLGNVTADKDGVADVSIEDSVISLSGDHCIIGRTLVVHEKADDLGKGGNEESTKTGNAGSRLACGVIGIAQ
triply deamidated SOD1 (modeled with N26D/N131D/N139D substitutions), recombinant human, sequence (chain, as listed by the source N26D N131D N139D): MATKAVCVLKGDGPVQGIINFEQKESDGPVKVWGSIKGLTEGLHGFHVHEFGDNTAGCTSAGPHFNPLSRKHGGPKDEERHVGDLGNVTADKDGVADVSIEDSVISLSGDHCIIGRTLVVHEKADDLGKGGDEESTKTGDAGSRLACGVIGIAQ

triply deamidated SOD1 (modeled with N26D/N131D/N139D substitutions), recombinant human
t30% (time to reach 30% heterodimer) [1]: 297 min
t30% (time to reach 30% heterodimer) [2]: 339 min
t30% (time to reach 30% heterodimer) [3]: 188 min
t30% (time to reach 30% heterodimer) [4]: 85.8 min
